We go through 2 molecules from US20230272056A1 (Merck Sharp & Dohme, published 2023).

Test [1] addresses T1, human LAP-TGFB1 Fc fusion (human).
T1 construct: also called human LAP-TGFβ1-Fc; human LAP-TGFβ-Fc isoform 1
In words: SPR pH 7.4, antigen-Fc captured, Fab analyte.

For test [2], the target named is T1, human LAP-TGFB1 Fc fusion. In words: BLI off-rate screen. As for the experimental part:
(§1) The Fab mutants including a positive control, 20E6 Fab, and a negative control Fab (Molecular Innovations, catalog HU-FAB-4510) were diluted to 200 nM in assay buffer and loaded to FAB2G sensors for 180 seconds followed by a one-hour incubation at room temperature in assay buffer to equilibrate the tips. The Fab loaded sensors were assessed for binding with 100 nM human LAP-TGFβ for 180 seconds followed by a 180 second dissociation phase in assay buffer on a ForteBio HTX (software version 9.0.0.66). Non-specific binding to the negative control Fab was subtracted and the binding sensorgrams were aligned to the start of the association phase on the X and Y axis. The Fab binding was fit with the 1:1 binding model, dissociation phase only, with local fitting using ForteBio Data Analysis 9.0 software.

The target in test [3] is T1, human LAP-TGFB1 Fc fusion. In words: SPR, antigen-Fc captured, Fab analyte. The text has this: (§2) This Example describes the isoform specificity of the yeast display mutants to bind to human LAP-TGFβ isoforms 1, 2, and 3 using surface plasmon resonance. A Series S CM4 sensor chip (GE Healthcare, catalog BR100534) was immobilized with an anti-human Fc capture antibody following the kit protocol (GE Healthcare, catalog BR100839) on a Biacore T200 instrument with 1× HBS-EP+ (Teknova, catalog H8022). […] Binding specificity experiments between human LAP-TGFβ isoforms 2 and 3 and yeast display mutants were performed in 1× HBS-EP+ with 0.1 mg/mL BSA at 25° C. Approximately 20-40 RU amounts of human LAP-TGFβ2 and 3 were captured to the anti-human Fc surface followed by injection of 1000 nM Fab including a negative control 0 nM Fab. The binding data were double referenced by subtraction of signal from a reference (capture surface only) flow cell and the negative control 0 nM Fab injection. Binding rate constants were determined by fitting the data with a 1:1 binding model (GE Healthcare Biacore T200 Evaluation software 3.0).
For orientation: SPR reads the build-up and loss of mass on a sensor chip optically.

Test [4] deals with T1, human LAP-TGFB1 Fc fusion. In words: SPR.
Test [5] addresses T2, human LAP-TGFB2 Fc fusion (human).
T2 construct: also called human LAP-TGFβ2; LAP-TGFβ isoform 2
In words: SPR. As for the experimental part:
(§3) A Series S CM4 sensor chip (GE Healthcare, catalog BR100534) was immobilized with an anti-human Fc capture antibody following the kit protocol (GE Healthcare, catalog BR100839) on a Biacore T200 instrument with 1× HBS-EP+ (Teknova, catalog H8022). […] Binding specificity between human LAP-TGFβ isoforms 2 and 3 and the tyrosine scanning double mutants were performed in 1× HEPES-buffered saline with EDTA and surfactant (HBS)-EP)+with 0.1 mg/mL BSA at 25° C. […] The binding data were double referenced by subtraction of signal from a reference (capture surface only) flow cell and the negative control 0 nM Fab injection. Binding rate constants were determined by fitting the data with a 1:1 binding model (GE Healthcare Biacore T200 Evaluation software 3.0).

Test [6] concerns the target T3, human LAP-TGFB3 Fc fusion (human).
T3 construct: also called human LAP-TGFβ3; LAP-TGFβ isoform 3
Briefly: SPR. As for the experimental part: as §3

Test [7] concerns the target T1, human LAP-TGFB1 Fc fusion. In words: SPR pH 6.0, antigen-Fc captured, Fab analyte. The procedure, abridged:
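Biacore T200 SPR at pH 6.0 in HBS-EP+, antigen-Fc captured on anti-human Fc CM4 surface with Fab as analyte. Sensorgrams double-referenced against capture-only flow cell and 0 nM Fab injection; rate constants fitted to a 1:1 binding model.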

For test [8], the target named is T1, human LAP-TGFB1 Fc fusion. Briefly: BLI off-rate screen. The procedure:
as §1
Twenty-three variants containing a single tyrosine substitution in the light chain CDRs (at one of amino acid positions 24-31, 33, 34, 51-56, and 89-95 according to Kabat numbering scheme) and 21 similar heavy chain CDR variants (at amino acids positions 28-31, 33-35, 50-58 including 52a, 95, 96, 98, and 99 according to Kabat numbering scheme) were generated according to FIG. 1 and listed in Table 6 and their interactions with human LAP-TGFb1 were analyzed by ForteBio interferometry. […] In those sequences the VL is correct, even though these sequences are from the heavy chain. Thus, the VL_X ##Y refers to the position of the tyrosine mutation within the antibody, regardless of whether the sequence is a heavy or light chain.
The source holds these as a separate data set.

Test [9] addresses T1, human LAP-TGFB1 Fc fusion. In words: SPR pH 7.4, antigen-Fc captured, Fab analyte. The source holds these as a separate data set.
The target in test [10] is T1, human LAP-TGFB1 Fc fusion. In words: SPR, antigen-Fc captured, Fab analyte. This is another data set of the same source.
The target in test [11] is T2, human LAP-TGFB2 Fc fusion. Briefly: SPR.
Excerpt: as §2
This is another data set of the same source.

Test [12] addresses T3, human LAP-TGFB3 Fc fusion. Briefly: SPR.
Excerpt: as §2
This is another data set of the same source.

The target in test [13] is T4, human LAP-TGFβ1 (construct not stated) (human, UniProt P01137 30-390).
T4 construct: also called human LAP-TGFβ isoform 1; titrant
T4 sequence (P01137 30-390 limits assumed): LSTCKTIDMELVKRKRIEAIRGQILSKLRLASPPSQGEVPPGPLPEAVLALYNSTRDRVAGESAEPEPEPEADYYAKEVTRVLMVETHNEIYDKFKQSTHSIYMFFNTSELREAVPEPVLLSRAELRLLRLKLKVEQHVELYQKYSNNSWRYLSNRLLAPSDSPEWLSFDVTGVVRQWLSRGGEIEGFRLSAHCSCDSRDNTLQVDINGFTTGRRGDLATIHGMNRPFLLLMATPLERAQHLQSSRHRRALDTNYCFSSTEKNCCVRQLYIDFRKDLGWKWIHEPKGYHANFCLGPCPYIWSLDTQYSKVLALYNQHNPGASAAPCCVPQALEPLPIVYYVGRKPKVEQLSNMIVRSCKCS
In words: KinExA, Fab as constant binding partner. The procedure: An orthogonal kinetic exclusion assay (KinExA) method was used in this study to measure the affinity of an affinity-matured anti-LAP-TGF β1 Fab 69BJN (referred to as the constant binding partner, CBP) and human LAP-TGFβ1 (referred to as the titrant). […] Two equilibrium experiments were prepared in assay buffer (1× PBS, 1 mg/mL BSA, and 0.05% NaN₃) with 5 pM or 100 pM of 69BJN as CBP followed by mixing and equilibrating with 1:10 serially diluted human LAP-TGFβ1 from 10 nM to 1 pM including a negative control 0 nM. The KinExA method was performed as follows: PMMA beads were loaded into the flow cell, a single concentration of titrant human LAP-TGFβ1 at equilibrium with 69BJN CBP was flowed over the flow cell, free CBP bound by PMMA beads was detected with rabbit anti-human IgG, F(ab′)₂ fragment specific-647 conjugate (Jackson Immunoresearch, catalog 309-005-006). This method was repeated in duplicate over the entire concentration series for each of the two different equilibrium series. The binding signals were analyzed with KinExA Pro software (version 4.4.26) where the free CBP binding signals were converted into percent free response and plotted against the titrant concentration series. The equilibrium KD was determined by using the titrant concentration as a reference and calculating percent activity of the ligand (CBP).
(A kinetic exclusion assay measures how much of one partner remains free in solution.)

Residue numbers refer to the chain shown, from its start. Names may count otherwise. “And” between values parts separate entries of the source, which are not always exact repeats. Identical values can stand only once. Like-named read-outs stand apart in the source and are kept apart here.

T1 sequence (chain, as listed by the source limits assumed): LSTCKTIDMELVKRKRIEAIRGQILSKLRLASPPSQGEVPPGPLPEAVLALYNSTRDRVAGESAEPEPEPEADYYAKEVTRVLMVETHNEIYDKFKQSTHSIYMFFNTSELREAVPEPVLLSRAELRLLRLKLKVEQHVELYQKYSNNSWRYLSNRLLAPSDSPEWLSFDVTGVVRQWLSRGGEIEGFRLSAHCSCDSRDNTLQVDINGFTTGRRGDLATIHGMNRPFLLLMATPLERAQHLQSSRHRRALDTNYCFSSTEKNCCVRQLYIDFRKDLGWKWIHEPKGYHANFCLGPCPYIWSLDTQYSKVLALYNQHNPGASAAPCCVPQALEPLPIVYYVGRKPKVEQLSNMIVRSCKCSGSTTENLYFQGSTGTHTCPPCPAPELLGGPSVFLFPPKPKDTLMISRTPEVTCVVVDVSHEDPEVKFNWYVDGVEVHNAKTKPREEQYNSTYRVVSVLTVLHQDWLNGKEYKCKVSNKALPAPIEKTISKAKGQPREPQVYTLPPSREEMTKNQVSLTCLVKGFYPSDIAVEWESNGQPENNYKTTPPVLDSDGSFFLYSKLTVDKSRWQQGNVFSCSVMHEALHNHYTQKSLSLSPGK
T2 sequence (chain, as listed by the source limits assumed): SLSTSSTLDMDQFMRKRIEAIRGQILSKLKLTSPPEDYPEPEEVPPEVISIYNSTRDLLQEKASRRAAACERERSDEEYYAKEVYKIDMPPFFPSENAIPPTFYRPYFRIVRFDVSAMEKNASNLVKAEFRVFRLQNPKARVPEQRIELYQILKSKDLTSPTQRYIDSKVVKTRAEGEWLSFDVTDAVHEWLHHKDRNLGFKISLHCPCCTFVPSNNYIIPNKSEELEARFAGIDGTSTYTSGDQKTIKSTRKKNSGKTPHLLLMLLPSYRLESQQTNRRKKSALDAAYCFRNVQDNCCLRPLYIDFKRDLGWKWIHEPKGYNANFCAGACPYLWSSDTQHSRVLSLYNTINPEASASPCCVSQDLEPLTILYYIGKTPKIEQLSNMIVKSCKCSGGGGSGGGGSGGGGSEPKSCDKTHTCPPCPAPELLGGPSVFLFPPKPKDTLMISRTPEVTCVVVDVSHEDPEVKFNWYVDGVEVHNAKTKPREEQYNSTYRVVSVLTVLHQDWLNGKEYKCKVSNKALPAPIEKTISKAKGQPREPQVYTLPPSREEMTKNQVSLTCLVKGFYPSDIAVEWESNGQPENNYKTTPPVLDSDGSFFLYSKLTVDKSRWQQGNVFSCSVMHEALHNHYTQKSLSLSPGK
T3 sequence (chain, as listed by the source limits assumed): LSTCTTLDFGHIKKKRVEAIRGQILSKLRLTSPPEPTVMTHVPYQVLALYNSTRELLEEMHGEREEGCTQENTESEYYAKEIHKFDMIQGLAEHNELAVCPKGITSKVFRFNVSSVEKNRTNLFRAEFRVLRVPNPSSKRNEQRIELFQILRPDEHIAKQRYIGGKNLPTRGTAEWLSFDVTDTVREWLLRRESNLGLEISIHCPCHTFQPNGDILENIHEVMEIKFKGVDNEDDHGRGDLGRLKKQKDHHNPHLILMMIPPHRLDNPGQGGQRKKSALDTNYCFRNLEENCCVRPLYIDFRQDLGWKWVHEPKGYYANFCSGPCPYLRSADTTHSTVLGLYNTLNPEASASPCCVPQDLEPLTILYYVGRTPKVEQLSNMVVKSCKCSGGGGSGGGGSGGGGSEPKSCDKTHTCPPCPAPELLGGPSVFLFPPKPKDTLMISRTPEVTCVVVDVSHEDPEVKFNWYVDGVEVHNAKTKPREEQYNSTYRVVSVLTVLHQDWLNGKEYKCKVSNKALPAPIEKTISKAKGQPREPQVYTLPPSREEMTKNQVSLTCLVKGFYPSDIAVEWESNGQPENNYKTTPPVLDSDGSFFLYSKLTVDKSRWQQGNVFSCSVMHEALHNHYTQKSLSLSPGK

B1: 20E6 Fab (80BGJ/85BIT) (Fab, V domains shown)
VH: EVQLVQSGAEVKKPGASVKVSCKASGYTFTSYWMHWVRQAPGQGLEWMGRIDPQSGGIKYAQKFQGRATLTVDTSTSTAYMELSRLRSDDTAVYYCARWDYGGYFDVWGQGTLVTVSS
VL: DIQMTQSPSSLSASVGDRVTITCRASQDITNYLNWYQQKPGKAVKLLIYYTSRLHSGVPSRFSGSGSGTDYTLTISSLQPEDFATYFCQQGDTLPWTFGQGTKLEIKR
notes: also called 20E6 (80BGJ); 20E6 (85BIT)
With B1, the Kd (as a rule, a measure of binding affinity in units of concentration) in test [1] worked out at 58.5 nM; in [3], 79.9 nM; in test [7], 103 nM; in test [9], 58.5 nM; in test [10], 81.2 nM. The koff (in general, a measure of how fast the partners let go of each other) is 0.0769 s⁻¹ in test [1]; 0.0468 s⁻¹ and 0.0381 s⁻¹ in [2]; 0.0769 s⁻¹ in [3]; 0.096 s⁻¹ in test [7]; 0.0468 s⁻¹ and 0.0381 s⁻¹ in [8]; 0.0769 s⁻¹ in test [9]. This molecule showed a koff in test [10] of 0.103 s⁻¹. The kon (commonly the rate constant with which the complex forms) in test [1] was 1.32e+06 M⁻¹ s⁻¹; in test [3] it was 960000 M⁻¹ s⁻¹; in test [7] it was 934000 M⁻¹ s⁻¹; in [9], 1.32e+06 M⁻¹ s⁻¹; in test [10], 1.45e+06 M⁻¹ s⁻¹. Moreover, the “Fold improvement in KD” value in test [3], in test [9] and in test [10] was 1 fold in each case. Moreover, the “Fold change in KD from pH 7.4 to pH 6” value in [4] was 1.8 fold. In addition, the binding result in test [5] and in test [6] was “no binding (tested: 1000 nM Fab)” throughout.

B2: 69BJN (Fab, V domains shown)
VH: B1 VH with W33D, I58T
VL: B1 VL with T30Y, R53V
notes: also called VH W33D I58T / VL T30Y R53V (69BJN)
As for B2, the binding result in test [11] is recorded as “no binding (tested: 1000 nM Fab)”. The binding result in [12] is “no binding (tested: 1000 nM Fab)”. Also, in test [3], the “Fold improvement in KD” value stood at 695 fold, the Kd was 0.115 nM, the koff worked out at 0.000488 s⁻¹ and the kon came out at 4.25e+06 M⁻¹ s⁻¹. Further, the affinity in test [13], expressed as Kd, was 0.028 nM.
